{"source": "patent US20240192215A1", "about": "(E AND S HEALTHCARE, published 2024)", "binders": {"B1": {"name": "monoclonal antibody B264 (antibody, mouse IgG1, kappa, V domains shown)", "VH": "QVQLQQSGAELARPGASVKMSCKASGYTFTSYTMHWVKQRPGQGLEWIGYINPTSDYTNYNQKFKDKATLTADKSSSTAYMQLSSLTSEDSAVYFCASEGGFLYYFDYWGQGTTLTVSS", "VL": "DVLMTQTPLSLPVSLGDQASISCRSSQSIVHSNGNTYLEWYLQKPGQSPKLLIYKVSNRFSGVPDRFSGSGSGTDFTLKISRVEAEDLGVYYCFQGSHVPYTFGGGTKLEIKR", "notes": "also called AB264; B264 (Trx1-mIgG1)"}}, "test_in_all_cases": "peptide microarray, anti-mouse IgG DyLight 650, MMC2 heatmap (Example 17)", "key": {"Peptide_103": {"molecular_target": "T1, Peptide_103", "T1 peptide": "VGEFSGANKEKLEAT", "experimental": "(§1) 5, 1, 0.2, 0.04, 0.008 and 0.0016 μg/mL serial dilutions were incubated on a single multi-well microarray slide at 30° C. for 1 hour. The slide includes 21 individual mini-arrays (one mini-array per sample dilution).\n(§2) DyLight 650 was used as a label. False-positive binding to a peptide was evaluated by performing one additional control incubation in which only a secondary antibody was applied on the same microarray slide. Before performing each step, the microarrays were washed with a washing buffer.\n(§3) To visualize the obtained results and compare binding regions across individual cultures, as shown in FIGS. 21A to 21D, heatmap diagrams were calculated. In FIGS. 21A to 21D, the fluorescence intensity is expressed in a color-coded manner, white indicates no binding, and red indicates strong binding. For all evaluations, the MMC2-value of the average pixel fluorescence for each peptide was calculated."}, "Peptide_039": {"molecular_target": "T2, Peptide_039", "T2 peptide": "LVVVDFSATWCGPCK", "experimental": "as §1, §2, §3"}, "Peptide_076": {"molecular_target": "T3, Peptide_076", "T3 peptide": "VDDCQDVASECEVKC", "experimental": "as §1, §2, §3"}, "Peptide_060": {"molecular_target": "T4, Peptide_060", "T4 peptide": "HSLSEKYSNVIFLEV", "experimental": "as §1, §2, §3"}, "Peptide_028": {"molecular_target": "T5, Peptide_028", "T5 peptide": "FQEALDAAGDKLVVV", "experimental": "as §1, §2, §3"}, "Peptide_027": {"molecular_target": "T6, Peptide_027", "T6 peptide": "AFQEALDAAGDKLVV", "experimental": "as §1, §2, §3"}, "Peptide_083": {"molecular_target": "T7, Peptide_083", "T7 peptide": "ASECEVKCMPTFQFF", "experimental": "as §1, §2, §3"}, "Peptide_033": {"molecular_target": "T8, Peptide_033", "T8 peptide": "DAAGDKLVVVDFSAT", "experimental": "as §1, §2, §3"}, "Peptide_017": {"molecular_target": "T9, Peptide_017", "T9 peptide": "HHVKQIESKTAFQEA", "experimental": "as §1, §2, §3"}, "Peptide_091": {"molecular_target": "T10, Peptide_091", "T10 peptide": "MPTFQFFKKGQKVGE", "experimental": "as §1, §2, §3"}, "Peptide_003": {"molecular_target": "T11, Peptide_003", "T11 peptide": "TAADVHSQHHHHHHH", "experimental": "as §1, §2, §3"}, "Peptide_067": {"molecular_target": "T12, Peptide_067", "T12 peptide": "SNVIFLEVDVDDCQD", "experimental": "as §1, §2, §3"}, "Peptide_100": {"molecular_target": "T13, Peptide_100", "T13 peptide": "GQKVGEFSGANKEKL", "experimental": "as §1, §2, §3"}, "Peptide_058": {"molecular_target": "T14, Peptide_058", "T14 peptide": "FFHSLSEKYSNVIFL", "experimental": "as §1, §2, §3"}, "Peptide_073": {"molecular_target": "T15, Peptide_073", "T15 construct": "also called EVDVDDCQDVASECE", "T15 peptide": "EVDVDDCQDVASECE", "experimental": "as §1, §2, §3"}, "Peptide_106": {"molecular_target": "T16, Peptide_106", "T16 construct": "also called FSGANKEKLEATINE", "T16 peptide": "FSGANKEKLEATINE", "experimental": "as §1, §2, §3"}, "Peptide_098": {"molecular_target": "T17, Peptide_098", "T17 peptide": "KKGQKVGEFSGANKE", "experimental": "as §1, §2, §3"}, "Peptide_016": {"molecular_target": "T18, Peptide_016", "T18 peptide": "HHHVKQIESKTAFQE", "experimental": "as §1, §2, §3"}, "Peptide_074": {"molecular_target": "T19, Peptide_074", "T19 peptide": "VDVDDCQDVASECEV", "experimental": "as §1, §2, §3"}, "Peptide_069": {"molecular_target": "T20, Peptide_069", "T20 peptide": "VIFLEVDVDDCQDVA", "experimental": "as §1, §2, §3"}, "Peptide_104": {"molecular_target": "T21, Peptide_104", "T21 peptide": "GEFSGANKEKLEATI", "experimental": "as §1, §2, §3"}, "Peptide_006": {"molecular_target": "T22, Peptide_006", "T22 peptide": "DVHSQHHHHHHHHVK", "experimental": "as §1, §2, §3"}, "Peptide_035": {"molecular_target": "T23, Peptide_035", "T23 peptide": "AGDKLVVVDFSATWC", "experimental": "as §1, §2, §3"}, "Peptide_041": {"molecular_target": "T24, Peptide_041", "T24 peptide": "VVDFSATWCGPCKMI", "experimental": "as §1, §2, §3"}, "Peptide_040": {"molecular_target": "T25, Peptide_040", "T25 peptide": "VVVDFSATWCGPCKM", "experimental": "as §1, §2, §3"}, "Peptide_036": {"molecular_target": "T26, Peptide_036", "T26 peptide": "GDKLVVVDFSATWCG", "experimental": "as §1, §2, §3"}, "Peptide_007": {"molecular_target": "T27, Peptide_007", "T27 peptide": "VHSQHHHHHHHHVKQ", "experimental": "as §1, §2, §3"}, "Peptide_043": {"molecular_target": "T28, Peptide_043", "T28 peptide": "DFSATWCGPCKMIKP", "experimental": "as §1, §2, §3"}}}
{"binder": "B1", "values": [{"measurement": "binding result", "setting": "Peptide_103", "result": "no binding (tested: 5 ug/mL)"}, {"measurement": "binding result", "setting": "Peptide_039", "result": "binds"}, {"measurement": "binding result", "setting": "Peptide_076", "result": "no binding (tested: 5 ug/mL)"}, {"measurement": "binding result", "setting": "Peptide_060", "result": "binds"}, {"measurement": "binding result", "setting": "Peptide_028", "result": "no binding (tested: 5 ug/mL)"}, {"measurement": "binding result", "setting": "Peptide_027", "result": "no binding (tested: 5 ug/mL)"}, {"measurement": "binding result", "setting": "Peptide_083", "result": "no binding (tested: 5 ug/mL)"}, {"measurement": "binding result", "setting": "Peptide_033", "result": "no binding (tested: 5 ug/mL)"}, {"measurement": "binding result", "setting": "Peptide_017", "result": "binds"}, {"measurement": "binding result", "setting": "Peptide_091", "result": "no binding (tested: 5 ug/mL)"}, {"measurement": "binding result", "setting": "Peptide_003", "result": "no binding (tested: 5 ug/mL)"}, {"measurement": "binding result", "setting": "Peptide_067", "result": "no binding (tested: 5 ug/mL)"}, {"measurement": "binding result", "setting": "Peptide_100", "result": "no binding (tested: 5 ug/mL)"}, {"measurement": "binding result", "setting": "Peptide_058", "result": "no binding (tested: 5 ug/mL)"}, {"measurement": "binding result", "setting": "Peptide_073", "result": "no binding (tested: 5 ug/mL)"}, {"measurement": "binding result", "setting": "Peptide_106", "result": "no binding (tested: 5 ug/mL)"}, {"measurement": "binding result", "setting": "Peptide_098", "result": "no binding (tested: 5 ug/mL)"}, {"measurement": "binding result", "setting": "Peptide_016", "result": "binds"}, {"measurement": "binding result", "setting": "Peptide_074", "result": "no binding (tested: 5 ug/mL)"}, {"measurement": "binding result", "setting": "Peptide_069", "result": "no binding (tested: 5 ug/mL)"}, {"measurement": "binding result", "setting": "Peptide_104", "result": "no binding (tested: 5 ug/mL)"}, {"measurement": "binding result", "setting": "Peptide_006", "result": "binds"}, {"measurement": "binding result", "setting": "Peptide_035", "result": "no binding (tested: 5 ug/mL)"}, {"measurement": "binding result", "setting": "Peptide_041", "result": "no binding (tested: 5 ug/mL)"}, {"measurement": "binding result", "setting": "Peptide_040", "result": "no binding (tested: 5 ug/mL)"}, {"measurement": "binding result", "setting": "Peptide_036", "result": "no binding (tested: 5 ug/mL)"}, {"measurement": "binding result", "setting": "Peptide_007", "result": "no binding (tested: 5 ug/mL)"}, {"measurement": "binding result", "setting": "Peptide_043", "result": "no binding (tested: 5 ug/mL)"}]}
